Assay results as given in paper PMC3258384 (Journal of Molecular Biology, 2011).

Molecular target: Human calmodulin (human, UniProt P0DP23 1-149)
Experiment: circular dichroism

binding result: binds
Binder: ARKEVIRNKIRAIGKMARVFSVLR [pCaN peptide, the CaM binding region in the RD of αCaN]
